In US7569390 (MEDICAL RESEARCH COUNCIL, dated 2009):

Target: T1, Syk/BTM116 (LexA-Syk bait) (E. coli, UniProt P48025 1-629)
T1 construct: also called pLexA-Syk; not shown: E. coli LexA domain of vector pBTM116
Assay: yeast two-hybrid (L40), β-galactosidase assay; FIG. 2B row 2, empty pVP16 control

T1 sequence (P48025 whole entry, the tested form may be a part): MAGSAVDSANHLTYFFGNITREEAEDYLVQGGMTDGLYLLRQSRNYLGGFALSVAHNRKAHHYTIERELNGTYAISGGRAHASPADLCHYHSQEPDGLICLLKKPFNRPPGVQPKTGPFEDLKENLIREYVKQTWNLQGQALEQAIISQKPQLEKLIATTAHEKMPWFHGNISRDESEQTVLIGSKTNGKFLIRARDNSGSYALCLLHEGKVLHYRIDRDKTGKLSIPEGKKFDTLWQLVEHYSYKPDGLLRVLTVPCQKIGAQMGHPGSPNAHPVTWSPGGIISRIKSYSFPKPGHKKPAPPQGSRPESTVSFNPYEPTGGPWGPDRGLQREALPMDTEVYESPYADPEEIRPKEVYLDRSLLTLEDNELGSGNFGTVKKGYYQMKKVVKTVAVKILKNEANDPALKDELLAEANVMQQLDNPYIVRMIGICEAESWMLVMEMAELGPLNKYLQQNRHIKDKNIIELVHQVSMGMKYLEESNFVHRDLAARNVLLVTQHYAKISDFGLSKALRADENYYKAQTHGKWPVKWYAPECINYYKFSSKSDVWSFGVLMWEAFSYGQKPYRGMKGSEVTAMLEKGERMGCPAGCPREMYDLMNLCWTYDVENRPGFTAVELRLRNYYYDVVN

B1: VP16 vector alone (pVP16, no scFv insert) (other)
chain: STAPPTDVSLGDELHLDGEDVAMAHADALDDFDLDMLGDGDSPGPGFTPHDSAPYGALDMADFEFEQMFTDALGIDEYGG
notes: also called empty pVP16 vector
binding result: no binding
